Reference: article PMC3826599

How the values were obtained:
[1] = target: Giardia lamblia macrophage migration inhibitory factor (Giardia lamblia ATCC 50803); test: SEC
[2] = target: Giardia lamblia macrophage migration inhibitory factor (Giardia lamblia ATCC 50803); test: crystal structure

“Giardia lamblia macrophage migration inhibitory factor (natural protein)” was tested, and the stoichiometry N [1] was 3 and the stoichiometry N [2] was 3.
